Measured values as given in patent US20180155413A1 (AstraZeneca / MedImmune, published 2018).

Assays:
Experiment in all cases: cell-based or functional assay
[1] = target: HA of A/California/07/2009 (H1N1) (influenza A virus)
[2] = target: HA of A/Hong Kong/8/68 (H3N2) (influenza A virus)
[3] = target: HA of A/Wilson Smith N/33 (H1N1) (influenza A virus, UniProt P03454 18-565)
[4] = target: HA of A/Fort Monmouth/1/47 (H1N1) (influenza A virus)
[5] = target: HA of A/Solomon Island/3/2006 (H1N1) (influenza A virus)
[6] = target: HA of A/California/07/2009 (H1N1) (influenza A virus); remark: listed apart in the source
[7] = target: HA of ca A/Perth/16/2009 (H3N2) (influenza A virus)
[8] = target: HA of A/Minnesota/11/2010 (H3N2v) (influenza A virus)
[9] = target: HA of ca A/Brit. Columbia/CN-6/04 (H7N3-LP) (influenza A virus)
[10] = target: HA protein derived from A/South Dakota/6/2007 H1N1, on stably transfected MDCK cells (influenza A virus)
[11] = target: HA of A/Hong Kong/2212/2010 (H1N1) (influenza A virus)
[12] = target: HA of ca A/chicken/Hong Kong/G9/97 (H9N2) (influenza A virus)
[13] = target: HA of A/New York/39/2012 (H3N2) (influenza A virus)
[14] = target: HA of B/Lee/40 (influenza B virus, UniProt P03460 16-584)
Chain of HA of B/Lee/40 (P03460 16-584 limits assumed): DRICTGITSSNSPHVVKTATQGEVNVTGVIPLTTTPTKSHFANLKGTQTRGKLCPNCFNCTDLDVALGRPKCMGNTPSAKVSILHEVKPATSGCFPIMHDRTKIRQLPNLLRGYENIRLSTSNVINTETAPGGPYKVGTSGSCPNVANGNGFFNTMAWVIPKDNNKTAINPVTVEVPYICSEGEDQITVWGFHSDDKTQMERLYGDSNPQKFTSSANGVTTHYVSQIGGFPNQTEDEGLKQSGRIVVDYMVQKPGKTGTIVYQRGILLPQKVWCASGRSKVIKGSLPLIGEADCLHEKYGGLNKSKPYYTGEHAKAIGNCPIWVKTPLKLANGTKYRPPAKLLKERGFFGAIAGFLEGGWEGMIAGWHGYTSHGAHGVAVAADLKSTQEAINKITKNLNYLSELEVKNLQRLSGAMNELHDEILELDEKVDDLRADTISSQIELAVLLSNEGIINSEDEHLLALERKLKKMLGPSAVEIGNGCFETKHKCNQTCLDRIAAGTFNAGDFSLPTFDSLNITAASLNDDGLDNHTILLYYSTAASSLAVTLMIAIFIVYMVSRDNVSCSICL

[15] = target: HA of ca B/Ann Arbor/1/66 (influenza B virus)
[16] = target: HA of B/Hong Kong/5/72 (influenza B virus)
[17] = target: HA of ca B/Beijing/243/97 (victoria) (influenza B virus)
[18] = target: HA of B/Hong Kong/330/2001 (victoria) (influenza B virus)
[19] = target: HA of B/Malaysia/2506/2004 (victoria) (influenza B virus)
[20] = target: HA of B/Ohio/1/2005 (victoria) (influenza B virus)
[21] = target: HA of ca B/Brisbane/60/2008 (victoria) (influenza B virus)
[22] = target: HA of B/Nevada/3/2011 (victoria) (influenza B virus)
[23] = target: HA of B/New Jersey/01/2012 (victoria) (influenza B virus)
[24] = target: HA of B/Texas/2/2013 (victoria) (influenza B virus)
[25] = target: HA of B/Wisconsin/5/2013 (victoria) (influenza B virus)
[26] = target: HA of B/Yamagata/16/88 (yamagata) (influenza B virus)
[27] = target: HA of ca B/Georgia/02/98 (yamagata) (influenza B virus)
[28] = target: HA of B/Yamanashi/166/98 (yamagata) (influenza B virus)
[29] = target: HA of B/Sichuan/379/99 (yamagata) (influenza B virus)
[30] = target: HA of ca B/Victoria/504/2000 (yamagata) (influenza B virus)
[31] = target: HA of B/Florida/4/2006 (yamagata) (influenza B virus)
[32] = target: HA of B/Wisconsin/1/2010 (yamagata) (influenza B virus)
[33] = target: HA of B/Arizona/8/2013 (yamagata) (influenza B virus)
[34] = target: HA of B/Phuket/3073/2013 (yamagata) (influenza B virus)
[35] = target: HA of B/Hong Kong/330/2001 (victoria) (influenza B virus); remark: listed apart in the source
[36] = target: HA of B/Malaysia/2506/2004 (victoria) (influenza B virus); remark: listed apart in the source
[37] = target: HA of B/Ohio/1/2005 (victoria) (influenza B virus); remark: listed apart in the source
[38] = target: HA of ca B/Brisbane/60/2008 (victoria) (influenza B virus); remark: listed apart in the source
[39] = target: HA of B/Yamagata/16/88 (yamagata) (influenza B virus); remark: listed apart in the source
[40] = target: HA of ca B/Georgia/02/98 (yamagata) (influenza B virus); remark: listed apart in the source
[41] = target: HA of B/Yamanashi/166/98 (yamagata) (influenza B virus); remark: listed apart in the source
[42] = target: HA of B/Sichuan/379/99 (yamagata) (influenza B virus); remark: listed apart in the source

Chain of HA of A/Wilson Smith N/33 (H1N1) (P03454 18-565 limits assumed): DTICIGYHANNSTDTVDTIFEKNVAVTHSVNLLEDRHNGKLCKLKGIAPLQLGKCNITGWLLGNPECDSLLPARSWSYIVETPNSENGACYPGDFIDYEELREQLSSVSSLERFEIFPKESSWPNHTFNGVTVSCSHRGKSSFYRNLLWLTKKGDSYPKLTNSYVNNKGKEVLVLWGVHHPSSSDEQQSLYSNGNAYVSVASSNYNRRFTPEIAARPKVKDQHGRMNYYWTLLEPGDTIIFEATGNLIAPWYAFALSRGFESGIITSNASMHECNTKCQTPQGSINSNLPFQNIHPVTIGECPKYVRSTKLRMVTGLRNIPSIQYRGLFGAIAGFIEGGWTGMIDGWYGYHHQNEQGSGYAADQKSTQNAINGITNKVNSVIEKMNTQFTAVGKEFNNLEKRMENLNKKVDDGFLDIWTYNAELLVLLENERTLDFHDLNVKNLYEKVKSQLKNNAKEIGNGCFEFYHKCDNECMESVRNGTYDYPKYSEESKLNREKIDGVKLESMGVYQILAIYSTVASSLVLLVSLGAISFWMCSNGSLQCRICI

B1: GL20 IgG (antibody, V domains shown)
VH: QVQLQQSGPGLVKPSQTLSLTCAISGDSVSSYNAVWNWIRQSPSRGLEWLGRTYYRSGWYNDYAESVKSRITINPDTSKNQFSLQLNSVTPEDTAVYYCARSGHITVFGVNVDAFDMWGQGTMVTVSS
VL: DIQMTQSPSSLSASVGDRVTITCRTSQSLSSYTHWYQQKPGKAPKLLIYAASSRGSGVPSRFSGSGSGTDFTLTISSLQPEDFATYYCQQSRTFGQGTKVEIK
- ADCC: NK cell killing of infected A549 cells (LDH release), IC50 [1]: 0.024 nM
- ADCC: NK cell killing of infected A549 cells (LDH release), IC50 [2]: 0.018 nM
- Neutralization (IC50) [3]: 7.6 nM
- Neutralization (IC50) [4]: 6.1 nM
- Neutralization (IC50) [5]: 4.3 nM
- Neutralization (IC50) [6]: 10.2 nM
- Neutralization (IC50) [7]: 4.2 nM
- Neutralization (IC50) [8]: 11.1 nM
- Neutralization (IC50) [9]: 7.4 nM
- EC50 (read off the curve), ADCP % double positive [10]: ~0.04 nM

B2: GL20/39 BiS4 100/44 (bispecific antibody)
light: DIQMTQSPSSLSASVGDRVTITCRTSQSLSSYTHWYQQKPGKAPKLLIYAASSRGSGVPSRFSGSGSGTDFTLTISSLQPEDFATYYCQQSRTFGQGTKVEIKRTVAAPSVFIFPPSDEQLKSGTASVVCLLNNFYPREAKVQWKVDNALQSGNSQESVTEQDSKDSTYSLSSTLTLSKADYEKHKVYACEVTHQGLSSPVTKSFNRGEC
heavy: not shown
- Neutralization (IC50) [3]: 9.5 nM
- Neutralization (IC50) [4]: 5.2 nM
- Neutralization (IC50) [5]: 4.4 nM
- Neutralization (IC50) [6]: 10.9 nM
- Neutralization (IC50) [11]: 0.4 nM
- Neutralization (IC50) [12]: 1.6 nM
- Neutralization (IC50) [7]: 4 nM
- Neutralization (IC50) [13]: 0.5 nM
- Neutralization (IC50) [8]: 17.1 nM
- Neutralization (IC50) [9]: 18.3 nM
- Neutralization (IC50) [14]: 1 nM
- Neutralization (IC50) [15]: 12.8 nM
- Neutralization (IC50) [16]: 5.7 nM
- Neutralization (IC50) [17]: 25.9 nM
- Neutralization (IC50) [18]: 66.9 nM
- Neutralization (IC50) [19]: 33 nM
- Neutralization (IC50) [20]: 18.7 nM
- Neutralization (IC50) [21]: 51.8 nM
- Neutralization (IC50) [22]: 38.2 nM
- Neutralization (IC50) [23]: 23 nM
- Neutralization (IC50) [24]: 13.8 nM
- Neutralization (IC50) [25]: 14.5 nM
- Neutralization (IC50) [26]: 1.3 nM
- Neutralization (IC50) [27]: 1 nM
- Neutralization (IC50) [28]: 0.3 nM
- Neutralization (IC50) [29]: 12.1 nM
- Neutralization (IC50) [30]: 1.3 nM
- Neutralization (IC50) [31]: 1.4 nM
- Neutralization (IC50) [32]: 4.4 nM
- Neutralization (IC50) [33]: 2.2 nM
- Neutralization (IC50) [34]: 15.4 nM
- Hemagglutination Inhibition Titer [35]: 244 nM
- Hemagglutination Inhibition Titer [36]: 244 nM
- Hemagglutination Inhibition Titer [37]: 244 nM
- Hemagglutination Inhibition Titer [38]: 244 nM
- Hemagglutination Inhibition Titer [39]: 122 nM
- Hemagglutination Inhibition Titer [40]: 122 nM
- Hemagglutination Inhibition Titer [41]: 122 nM
- Hemagglutination Inhibition Titer [42]: 122 nM
